Measurements taken from US20030129688A1 (published 2003).
Residue numbers refer to the chain shown, from its start. Ends that are not written are not given here.

Tests used:
[1] = target: T1, ErbB-3 receptor-Ig fusion (human, UniProt P21860 20-643; P21860 20-636); assay: 125I-HRG-β1 177-244 displacement, ErbB-3-Ig on plate
[2] = target: T2, ErbB-4 receptor-Ig fusion (human, UniProt Q15303 26-651; Q15303 26-640); assay: 125I-HRG-β1 177-244 displacement, ErbB-4-Ig on plate
[3] = target: T2, ErbB-4 receptor-Ig fusion; assay: phage ELISA, competition with soluble ErbB-4-Ig; against wild-type HRG-β1 177-244 on phage
[4] = target: T1, ErbB-3 receptor-Ig fusion; assay: phage ELISA, competition with soluble ErbB-3-Ig; against wild-type HRG-β1 177-244 on phage
[5] = target: T1, ErbB-3 receptor-Ig fusion; assay: phage ELISA, competition with soluble ErbB-3-Ig; against HRG8
Protocol: (§1) Microtiter plates (Nunc Maxisorp™ 96-well plates, Inter Med, Denmark) for phage ELISA were prepared as follows. The wells were precoated overnight with 0.5 μg of rabbit anti-human IgG (Fc gamma fragment-specific) antibodies (Jackson Immunoresearch, West Grove, Pa.) in 100 μL 50 mM NaCO₃ (pH 9.6). The wells were blocked for 30 minutes (min) with 200 μL PBS containing 0.1% bovine serum albumin (BSA) and rinsed with wash buffer (PBS containing 0.05% Tween 20™). The wells were then coated with 0.1 μg ErbB-2/3-Ig in binding buffer (PBS, 0.1% BSA, 0.05% Tween 20™) for 1 h, and washed again.
(§2) Following incubation for 2 h at room temperature, plates were washed extensively and treated with a 1:900 dilution of anti-M13 horseradish peroxidase conjugate (Pharmacia, Piscataway, N.J.) for 20 min. The amount of phage binding was determined by assaying horseradish peroxidase activity using o-phenylenediamine dihydrochloride) substrate solution (Sigma Chemical Company, St. Louis, Mo.).

[6] = target: T2, ErbB-4 receptor-Ig fusion; assay: phage ELISA, competition with soluble ErbB-4-Ig; against HRG8
[7] = target: ErbB-2/3 receptor-Ig fusion (human, UniProt P04626 23-652; P04626 23-645; P21860 20-643; P04626 23-645); assay: phage ELISA, competition with soluble ErbB-2/3-Ig
Protocol: as §1, §2

[8] = target: ErbB-2/3 heterodimers on MCF7 breast cancer carcinoma cells (UniProt P04626); assay: cell-based or functional assay
[9] = target: ErbB-2/3 receptor-Ig fusion (human) (UniProt P04626); assay: 125I-HRG displacement, ErbB-2/3-Ig on plate
[10] = target: ErbB-2/3 receptor-Ig fusion (human) (UniProt P04626); assay: phage ELISA, competition with soluble ErbB-2/3-Ig

T2 sequence (Q15303 other isoform, or with tags, fused parts or gaps): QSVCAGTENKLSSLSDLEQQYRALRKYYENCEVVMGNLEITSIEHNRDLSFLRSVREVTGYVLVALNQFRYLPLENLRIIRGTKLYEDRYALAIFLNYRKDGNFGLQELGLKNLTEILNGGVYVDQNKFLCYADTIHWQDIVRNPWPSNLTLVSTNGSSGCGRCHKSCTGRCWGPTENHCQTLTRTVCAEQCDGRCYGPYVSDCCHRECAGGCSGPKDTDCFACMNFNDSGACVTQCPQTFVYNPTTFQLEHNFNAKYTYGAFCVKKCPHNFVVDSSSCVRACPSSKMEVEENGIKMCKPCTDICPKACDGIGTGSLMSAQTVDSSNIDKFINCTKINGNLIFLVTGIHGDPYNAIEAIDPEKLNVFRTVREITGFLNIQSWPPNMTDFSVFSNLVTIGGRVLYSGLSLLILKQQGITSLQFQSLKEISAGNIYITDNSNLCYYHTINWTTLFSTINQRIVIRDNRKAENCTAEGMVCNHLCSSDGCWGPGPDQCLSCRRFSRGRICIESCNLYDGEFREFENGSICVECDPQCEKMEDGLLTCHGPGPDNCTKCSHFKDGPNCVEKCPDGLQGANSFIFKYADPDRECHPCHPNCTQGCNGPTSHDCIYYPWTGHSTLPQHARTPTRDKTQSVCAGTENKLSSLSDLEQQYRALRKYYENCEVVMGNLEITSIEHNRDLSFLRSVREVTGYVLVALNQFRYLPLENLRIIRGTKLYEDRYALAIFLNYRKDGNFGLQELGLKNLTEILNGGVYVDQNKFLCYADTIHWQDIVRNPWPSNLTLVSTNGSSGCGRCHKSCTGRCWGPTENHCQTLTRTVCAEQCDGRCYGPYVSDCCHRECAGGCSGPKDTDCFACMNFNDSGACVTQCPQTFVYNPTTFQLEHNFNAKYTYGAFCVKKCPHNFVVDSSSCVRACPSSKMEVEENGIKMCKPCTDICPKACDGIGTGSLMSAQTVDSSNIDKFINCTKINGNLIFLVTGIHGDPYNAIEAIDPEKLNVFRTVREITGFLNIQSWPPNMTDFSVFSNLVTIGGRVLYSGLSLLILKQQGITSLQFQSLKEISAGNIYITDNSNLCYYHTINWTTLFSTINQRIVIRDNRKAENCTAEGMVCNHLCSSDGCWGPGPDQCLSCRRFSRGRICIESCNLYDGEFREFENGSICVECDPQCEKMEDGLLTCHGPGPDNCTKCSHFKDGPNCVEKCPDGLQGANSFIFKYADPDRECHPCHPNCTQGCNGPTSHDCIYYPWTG

Trx-HRG-β1 146-244 P205A fusion (from UniProt Q02297 146-244) (ligand)
EC50 [1]: 39.5 nM
EC50 [2]: 34.2 nM

HRG-β1 177-244 H178L displayed on phage (Example 4 clone) (from UniProt Q02297 177-244) (ligand)
EC50 Mut/WT [3]: 1.2
EC50 Mut/WT [4]: 1.4

Trx-HRG-β1 146-244 G193A fusion (from UniProt Q02297 146-244) (ligand)
EC50 [1]: 26.9 nM
EC50 [2]: 76.3 nM

HRG-β1 177-244 H178L with 228-231 replaced by Met, displayed on phage (Example 4 clone) (from UniProt Q02297 177-227; Q02297 232-244) (ligand)
EC50 Mut/WT [3]: 1.7
EC50 Mut/WT [4]: 6.4

Trx-HRG-β1 146-244 E215A fusion (from UniProt Q02297 146-244) (ligand)
EC50 [1]: 156 nM
EC50 [2]: 104 nM

Trx-HRG-β1 146-244 L179A fusion (from UniProt Q02297 146-244) (ligand)
EC50 [1]: 394 nM
EC50 [2]: 51.7 nM

HRG-β1 177-244 H178E displayed on phage (Example 4 clone) (from UniProt Q02297 177-244) (ligand)
EC50 Mut/WT [3]: 1.7
EC50 Mut/WT [4]: 9.5

Trx-HRG-β1 146-244 Y224A fusion (from UniProt Q02297 146-244) (ligand)
EC50 [1]: 339 nM
EC50 [2]: 24.5 nM

Trx-HRG-β1 146-244 F216A fusion (from UniProt Q02297 146-244) (ligand)
EC50 [1]: 2550 nM
EC50 [2]: 173 nM

Trx-HRG-β1 146-244 V199A fusion (from UniProt Q02297 146-244) (ligand)
EC50 [2]: 246 nM

Trx-HRG-β1 146-244 S177A fusion (from UniProt Q02297 146-244) (ligand)
EC50 [1]: 129 nM
EC50 [2]: 54.6 nM

Trx-HRG-β1 146-244 F229A fusion (from UniProt Q02297 146-244) (ligand)
EC50 [1]: 177 nM
EC50 [2]: 89.9 nM

HRG-β1 177-244 H178D L179V displayed on phage (Example 4 clone) (from UniProt Q02297 177-244) (ligand)
EC50 Mut/WT [3]: 2
EC50 Mut/WT [4]: 2.2

Trx-HRG-β1 146-244 F189A fusion (from UniProt Q02297 146-244) (ligand)
EC50 [1]: 975 nM
EC50 [2]: 565 nM

Trx-HRG-β1 146-244 G218A fusion (from UniProt Q02297 146-244) (ligand)
EC50 [1]: 668 nM
EC50 [2]: 608 nM

Trx-HRG-β1 146-244 E195A fusion (from UniProt Q02297 146-244) (ligand)
EC50 [1]: 42 nM
EC50 [2]: 13.2 nM

Trx-HRG-β1 146-244 N192A fusion (from UniProt Q02297 146-244) (ligand)
EC50 [1]: 1640 nM
EC50 [2]: 696 nM

Trx-HRG-β1 146-244 R207A fusion (from UniProt Q02297 146-244) (ligand)
EC50 [1]: 245 nM
EC50 [2]: 24.3 nM

Trx-HRG-β1 146-244 G194A fusion (from UniProt Q02297 146-244) (ligand)
EC50 [1]: 1210 nM
EC50 [2]: 275 nM

Trx-HRG-β1 146-244 H178A fusion (from UniProt Q02297 146-244) (ligand)
EC50 [1]: 476 nM
EC50 [2]: 138 nM

HRG-β1 177-244 R207P displayed on phage (Example 4 clone) (from UniProt Q02297 177-244) (ligand)
EC50 Mut/WT [3]: 1.3
EC50 Mut/WT [4]: 6.1

Trx-HRG-β1 146-244 K200A fusion (from UniProt Q02297 146-244) (ligand)
EC50 [1]: 45.4 nM
EC50 [2]: 16.9 nM

HRG-β1 177-244 L179V displayed on phage (Example 4 clone) (from UniProt Q02297 177-244) (ligand)
EC50 Mut/WT [3]: 1.6
EC50 Mut/WT [4]: 1.5

Trx-HRG-β1 146-244 K211A fusion (from UniProt Q02297 146-244) (ligand)
EC50 [1]: 248 nM
EC50 [2]: 124 nM

HRG-β1 177-244 H178W with 228-231 replaced by Met, displayed on phage (Example 4 clone) (from UniProt Q02297 177-227; Q02297 232-244) (ligand)
EC50 Mut/WT [3]: 1.7
EC50 Mut/WT [4]: 1.2

Trx-HRG-β1 146-244 T217A fusion (from UniProt Q02297 146-244) (ligand)
EC50 [1]: 145 nM
EC50 [2]: 32.7 nM

B1: HRG37 combination variant displayed on phage (ligand, not shown: large carriers; small tags and cut ends)
chain: WELVPCGWDREGFCVNGGECFMVKDLSNPSRYLCKCPNEFTGDRCQNYVIAS-{(GGGS)3-M13 pIII C‑terminal fragment from residue 323}
modifications: ends and bridges not checked
notes: monovalent phage display, pHRG8-g3 background
EC50 (wt)/EC50 (mut) [5]: 13 ratio

B2: HRG-β1 EGF variant E2 displayed on phage (ligand, human, not shown: large carriers)
chain: SHLVKCAEKEKTFCVNGGECFMVKDYGYLMCKCPNEFTGDRCQNYVMASGGGSGGGSGGGS
notes: monovalent phage display
EC50 (wt)/EC50 (mut) [5]: 28 ratio
EC50 (wt)/EC50 (mut) [6]: 7.6 ratio

B3: HRG6 (HRG-β1 177-227 fused to pIII 247, displayed on phage) (ligand, human, UniProt Q02297-6 177-227, looked up, not shown: large carriers)
chain: SHLVKCAEKEKTFCVNGGECFMVKDLSNPSRYLCKCPNEFTGDRCQNYVMA
modifications: not fully specified (C-terminus); ends and bridges not checked
notes: monovalent phage display; Ala227 restored from pHRG1-g3; also called pHRG6-g3
EC50 [7]: 40 nM

B4: HRG4 (HRG-β1 147-227 fused to pIII 247, displayed on phage) (ligand, human, UniProt Q02297-6 147-227, looked up, not shown: large carriers)
chain: YVSSESPIRISVSTEGANTSSSTSTSTTGTSHLVKCAEKEKTFCVNGGECFMVKDLSNPSRYLCKCPNEFTGDRCQNYVMA
notes: range 147-227; monovalent phage display; also called pHRG4-g3
EC50 [7]: 38 nM

B5: HRG5 (HRG-β1 147-244 fused to pIII 247, displayed on phage) (ligand, human, UniProt Q02297-6 147-244, looked up, not shown: large carriers)
chain: YVSSESPIRISVSTEGANTSSSTSTSTTGTSHLVKCAEKEKTFCVNGGECFMVKDLSNPSRYLCKCPNEFTGDRCQNYVMASFYKHLGIEFMEAEELY
notes: monovalent phage display; also called pHRG5-g3
EC50 [7]: 4.7 nM

B6: HRG73 combination variant displayed on phage (ligand, human, not shown: large carriers)
chain: SHLVKCGEEREGFCVNGGECYRVKTYGYLMCKCPNEFTGDRCQHYVIASGGGSGGGSGGGS
notes: monovalent phage display; also called B3+D4+E2+I2
EC50 (wt)/EC50 (mut) [5]: 56 ratio
EC50 (wt)/EC50 (mut) [6]: 16 ratio

B7: HRG-β1 EGF variant A3 displayed on phage (ligand, human, not shown: large carriers)
chain: WELVPCAEKEKTFCVNGGECFMVKDLSNPSRYLCKCPNEFTGDRCQNYVMASGGGSGGGSGGGS
notes: as for B1
EC50 (wt)/EC50 (mut) [5]: 0.96 ratio
EC50 (wt)/EC50 (mut) [6]: 1.1 ratio

B8: HRG90 (HRG-β1 EGF Met226Ile) displayed on phage (ligand, human, not shown: large carriers)
chain: B7 chain with W1S, E2H, P5K, M50I
notes: monovalent phage display
EC50 (wt)/EC50 (mut) [5]: 6.3 ratio

B9: HRG-β1 EGF variant I2 displayed on phage (ligand, human, not shown: large carriers)
chain: B7 chain with W1S, E2H, P5K, N47H, M50I
notes: as for B1
EC50 (wt)/EC50 (mut) [5]: 20 ratio
EC50 (wt)/EC50 (mut) [6]: 10 ratio

B10: HRG-β1 EGF variant I1 displayed on phage (ligand, human, not shown: large carriers)
chain: B7 chain with W1S, E2H, P5K, N47W, M50I
notes: as for B1
EC50 (wt)/EC50 (mut) [5]: 13 ratio

B11: HRG-β1 EGF variant B3 displayed on phage (ligand, human, not shown: large carriers)
chain: B7 chain with W1S, E2H, P5K, A7G, K9E, E10R, K11E, T12G
notes: as for B1
EC50 (wt)/EC50 (mut) [5]: 4.7 ratio
EC50 (wt)/EC50 (mut) [6]: 1.7 ratio

B12: HRG-β1 EGF variant D4 displayed on phage (ligand, human, not shown: large carriers)
chain: B7 chain with W1S, E2H, P5K, F21Y, M22R, D25T
notes: as for B1
EC50 (wt)/EC50 (mut) [5]: 2.9 ratio
EC50 (wt)/EC50 (mut) [6]: 5 ratio

B13: HRG11 (HRG-β1 177-230 fused via GGGSGGG to pIII 247, displayed on phage) (ligand, human, not shown: large carriers)
chain: SHLVKCAEKEKTFCVNGGECFMVKDLSNPSRYLCKCPNEFTGDRCQNYVMASFYGGGSGGG
notes: monovalent phage display; also called pHRG11-g3
EC50 [7]: 19 nM

B14: HRG-β1 EGF variant E8 displayed on phage (ligand, not shown: large carriers; small tags and cut ends)
chain: SHLVKCAEKEKTFCVNGGECFMVKDTKYRGCKCPNEFTGDRCQNYVMAS-{(GGGS)3-M13 pIII C‑terminal fragment from residue 323}
modifications: ends and bridges not checked
notes: monovalent phage display; library E carries the 202-204 deletion
EC50 (wt)/EC50 (mut) [5]: 17 ratio

B15: soluble wild-type HRG-β1 EGF (HRG8) (ligand, human, UniProt Q02297-6 177-228, looked up)
chain: SHLVKCAEKEKTFCVNGGECFMVKDLSNPSRYLCKCPNEFTGDRCQNYVMAS
modifications: ends and bridges not checked; cysteine pairing not given here
KIRA EC50 (ErbB-2 tyrosine phosphorylation on MCF7 cells) [8]: 0.212 nM
EC50 [9]: 0.033 nM

B16: HRG7 (HRG-β1 177-228 fused to pIII 247, displayed on phage) (ligand, human, UniProt Q02297-6 177-228, looked up, not shown: large carriers)
chain: B15 chain
modifications: not fully specified (C-terminus); ends and bridges not checked
EC50 [10]: 42 nM

B17: HRG-β1 EGF variant G1 displayed on phage (ligand, not shown: large carriers; small tags and cut ends)
chain: SHLVKCAEKEKTFCVNGGECFMVKDLSNPSRYLCRCSLEFTGDRCQNYVMAS-{(GGGS)3-M13 pIII C‑terminal fragment from residue 323}
modifications: ends and bridges not checked
notes: as for B1
EC50 (wt)/EC50 (mut) [5]: 1.2 ratio
EC50 (wt)/EC50 (mut) [6]: 1.6 ratio
